The record followed here is patent US20220363769A1 (SORRISO PHARMACEUTICALS, published 2022).

Numbering of substitutions follows the chain as printed. Numbers in names are those of the source.

One experiment addresses T1, IL-9R (human, UniProt Q01113 41-270, limits assumed).
T1 sequence (looked up): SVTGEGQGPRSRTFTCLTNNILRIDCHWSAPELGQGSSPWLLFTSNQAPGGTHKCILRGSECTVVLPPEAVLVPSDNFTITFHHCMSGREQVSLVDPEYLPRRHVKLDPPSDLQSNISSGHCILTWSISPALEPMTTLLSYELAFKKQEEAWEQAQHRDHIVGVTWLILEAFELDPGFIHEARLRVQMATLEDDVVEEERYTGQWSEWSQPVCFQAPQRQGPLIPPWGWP
Description: competition ELISA: ID-A40U premixed with serially diluted soluble receptor, then added to plate-coated human IL-7Rα; bound ICVD detected [left panel]. As to the method:
(§1) 96-well plates were coated with 0.5 μg/mL recombinant human IL-7Rα His₆-Fc +5 μg/mL BSA and then blocked. 0.5 nM of ICVD was mixed 1:1 with the test compounds of choice serially diluted in 1% BSA, then incubated for 30 minutes to allow binding before adding to the IL-7Rα coated plates. Following 2 hours incubation, bound ICVD was detected with 50 uL/well 1/20000 anti-FLAG-HRP Goat antibody (GeneTex, GTX21238), and the level of neutralisation of ICVD-IL-7Rα binding by the test compounds was determined.
A general note: An ELISA detects its analyte on a solid surface through an enzyme-linked reagent.

The next experiment concerns the target T2, IL-6R (human, UniProt P08887 20-358, limits assumed).
T2 sequence (looked up): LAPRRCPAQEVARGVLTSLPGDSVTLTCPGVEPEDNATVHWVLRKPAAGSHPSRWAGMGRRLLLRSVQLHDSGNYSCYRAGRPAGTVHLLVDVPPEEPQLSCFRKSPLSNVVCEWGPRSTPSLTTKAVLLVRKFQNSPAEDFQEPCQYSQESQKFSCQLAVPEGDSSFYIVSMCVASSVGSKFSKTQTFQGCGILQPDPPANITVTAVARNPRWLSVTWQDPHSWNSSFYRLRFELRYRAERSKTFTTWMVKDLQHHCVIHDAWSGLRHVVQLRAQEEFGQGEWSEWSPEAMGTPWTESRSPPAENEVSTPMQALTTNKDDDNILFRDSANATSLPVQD
The description is as above. As to the method: as §1

The target of a further experiment is T3, TNFR-2 (human, UniProt P20333 23-257).
T3 sequence (looked up): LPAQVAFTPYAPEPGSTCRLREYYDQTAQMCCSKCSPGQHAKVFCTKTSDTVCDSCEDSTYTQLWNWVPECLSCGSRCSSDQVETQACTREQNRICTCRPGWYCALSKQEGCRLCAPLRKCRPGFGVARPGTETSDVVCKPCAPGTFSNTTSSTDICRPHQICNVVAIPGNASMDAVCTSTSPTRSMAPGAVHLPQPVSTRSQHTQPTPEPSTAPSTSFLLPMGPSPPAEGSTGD
The description is as above. As to the method:
as §1

For experiment [1], the target named is T4, recombinant human IL-7Rα-His6-Fc (human, UniProt P16871 21-239).
T4 construct: also called hIL-7R; not shown: His6 tag; Fc (captured by anti-human IgG Fc)
T4 chain: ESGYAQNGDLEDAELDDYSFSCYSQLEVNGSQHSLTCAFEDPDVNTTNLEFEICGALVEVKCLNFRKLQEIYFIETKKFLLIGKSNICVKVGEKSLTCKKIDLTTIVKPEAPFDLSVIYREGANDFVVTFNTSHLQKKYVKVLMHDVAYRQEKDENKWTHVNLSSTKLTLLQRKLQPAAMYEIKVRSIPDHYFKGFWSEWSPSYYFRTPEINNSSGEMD
In words: IL-7/IL-7Rα-His6-Fc ELISA; inhibition of IL-7 binding to IL-7R.

The target in experiment [2] is T4, recombinant human IL-7Rα-His6-Fc. In words: IL-7/IL-7R neutralisation ELISA; inhibition of IL-7 binding to IL-7R.
The target of another experiment is IL-21R (human, UniProt Q9HBE5 20-232, limits assumed). In words: competition ELISA: ID-A40U premixed with serially diluted soluble receptor, then added to plate-coated human IL-7Rα; bound ICVD detected [right panel]. As to the method:
as §1

Another experiment concerns the target T5, human IL-12Rβ1 (human, UniProt P42701 24-545, limits assumed).
T5 construct: also called hIL-12Rβ1; IL-12Rα1 (as printed in the result sentence)
The description is as above. As to the method: as §1

In experiment [3] the target is T4, recombinant human IL-7Rα-His6-Fc. In words: Biacore; IL-7Rα-His6-Fc captured by anti-human IgG Fc, ICVD flowed over. (In general: Surface plasmon resonance follows binding to a sensor surface in real time, without labels.)
The target in a further experiment is T6, cynomolgus monkey IL-7Rα (cynomolgus monkey, UniProt Q38IC7 21-239, limits assumed).
T6 construct: also called cynomolgus IL-7Rα
T6 sequence: T4 chain with N64S, E93G, T159M, K174N, A178E, S215P
In words: competition ELISA: ID-A40U premixed with serially diluted soluble IL-7R, then added to plate-coated human IL-7Rα-His6-Fc; bound ICVD detected. As to the method: as §1

Another experiment concerns the target T7, murine IL-7Rα (murine, UniProt P16872 21-239).
T7 construct: also called mouse IL-7R
T7 sequence (looked up): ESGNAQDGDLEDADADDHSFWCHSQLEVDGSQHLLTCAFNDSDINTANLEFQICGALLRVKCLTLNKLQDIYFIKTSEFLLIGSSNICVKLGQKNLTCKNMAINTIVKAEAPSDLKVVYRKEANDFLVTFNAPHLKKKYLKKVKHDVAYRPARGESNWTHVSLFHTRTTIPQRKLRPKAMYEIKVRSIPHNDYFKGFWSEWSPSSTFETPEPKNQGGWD
The experiment is described as above. As to the method:
as §1

Chain of IL-21R (Q9HBE5 20-232 limits assumed): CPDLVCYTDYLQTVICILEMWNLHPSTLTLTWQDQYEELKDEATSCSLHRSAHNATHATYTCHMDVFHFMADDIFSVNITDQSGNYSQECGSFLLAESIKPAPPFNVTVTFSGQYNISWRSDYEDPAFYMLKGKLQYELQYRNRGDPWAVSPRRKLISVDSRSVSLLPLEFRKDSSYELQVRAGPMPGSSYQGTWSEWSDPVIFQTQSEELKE

B1: ID-A40U (VHH)
VHH: EVQLVESGGGLVQAGGSLRLSCESSISTFSSDAMGWFRQAPGKEREFLAAIGWSGAVTHYSDSVKGRFTISRDNAKNTVYLQMNSLRAEDTGRYYCAEDYDTDVWQYWGQGTQVTVSS
notes: V7R-2E9 with Q65K, K87R, S88A; produced in E. coli; also called A40U-F/H; not shown: Flag-His6 tag
Consider B1, for which the binding result in the experiment with IL-9R is “no binding (tested: 100 ng/mL)”; in the experiment with IL-6R, “no binding (tested: 100 ng/mL)”; with TNFR-2, “no binding (tested: 100 ng/mL)”; in the experiment with IL-21R it was “no binding (tested: 100 ng/mL)”; with human IL-12Rβ1, “no binding (tested: 100 ng/mL)”; with cynomolgus monkey IL-7Rα, “binds”. Further, in the experiment with murine IL-7Rα, the binding result is “no binding (tested: 100 ng/mL)”. Also, the EC50 in experiment [1] and in experiment [2] was 0.544 nM in each case. For the same molecule, the Kd (usually the equilibrium constant for the complex coming apart) in experiment [3] was determined as 0.078 nM.
